Square brackets hold non-standard residues; d marks the D form. Side chains are listed from the residue outwards. Ends that are not written are not given here. Phe(2-F) = N[C@@H](Cc1ccccc1F)C(=O)O; NMeY = CN[C@@H](Cc1ccc(O)cc1)C(=O)O; αMeF = C[C@](N)(Cc1ccccc1)C(=O)O; Iva = CC[C@](C)(N)C(=O)O; Oda = not defined here; Aib = CC(C)(N)C(=O)O

Assay in all cases: cell-based or functional assay
The target in one test is T1, human GIPR (human, UniProt P48546 22-466).
T1 sequence (looked up): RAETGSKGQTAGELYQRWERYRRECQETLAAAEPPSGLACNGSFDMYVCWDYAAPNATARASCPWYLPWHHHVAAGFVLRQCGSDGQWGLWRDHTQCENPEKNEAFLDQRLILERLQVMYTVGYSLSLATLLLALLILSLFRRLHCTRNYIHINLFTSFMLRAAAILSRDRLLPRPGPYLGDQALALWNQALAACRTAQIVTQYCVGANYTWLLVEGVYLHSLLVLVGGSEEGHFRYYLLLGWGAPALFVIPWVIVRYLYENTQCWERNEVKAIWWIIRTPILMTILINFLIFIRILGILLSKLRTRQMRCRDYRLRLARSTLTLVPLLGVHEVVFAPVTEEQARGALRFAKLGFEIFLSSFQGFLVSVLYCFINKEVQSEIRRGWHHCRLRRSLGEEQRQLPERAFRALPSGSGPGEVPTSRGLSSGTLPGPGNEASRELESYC

For a further test, the target named is human GLP-1R (human, UniProt P43220 24-463).
The next test concerns the target T2, human NPY2R (human, UniProt P49146 1-381).
T2 sequence (looked up): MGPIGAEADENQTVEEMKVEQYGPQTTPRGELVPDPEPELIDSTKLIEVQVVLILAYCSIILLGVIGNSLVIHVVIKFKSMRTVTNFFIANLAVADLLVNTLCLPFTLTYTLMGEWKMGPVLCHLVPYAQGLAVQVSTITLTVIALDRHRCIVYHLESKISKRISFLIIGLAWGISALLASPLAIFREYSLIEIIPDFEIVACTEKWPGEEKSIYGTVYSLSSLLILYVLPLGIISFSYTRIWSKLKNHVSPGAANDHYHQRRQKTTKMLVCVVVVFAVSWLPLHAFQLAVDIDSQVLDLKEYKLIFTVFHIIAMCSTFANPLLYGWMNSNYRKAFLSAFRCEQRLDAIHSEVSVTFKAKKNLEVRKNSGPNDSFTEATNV

With Me-Y[Aib]EGT[αMeF]TSDK([Gly-Gly-Gly-Gly-Pal])SI[Aib]LEKQRQ[Iva]EFVRHLLNK[Aib]TRQRY-NH2, the “Agonist activity (EC50), Cre-luc reporter assay” value (shortened to “Agonist activity (EC50)”) with human GIPR is 52 pM; in the test with human GLP-1R it was 48 pM; with human NPY2R, 49 pM.

B1: H-Tyr-Aib-Glu-Gly-Thr-αMePhe-Thr-Ser-Asp-Lys(-Gly-Gly-Gly-Gly-Oda)-Aib-Ile-Aib-Leu-Asp-Lys-Gln-Arg-Gln-Iva-Glu-Phe-Val-Arg-His-Leu-Leu-Asn-Lys-Aib-Thr-Arg-Gln-A … (peptide)
peptide: H-Y[Aib]EGT[αMeF]TSDK([Gly-Gly-Gly-Gly-Oda])[Aib]I[Aib]LDKQRQ[Iva]EFVRHLLNK[Aib]TRQRY-NH2
modifications: reading uncertain; also: printed as H-Tyr-Aib-Glu-Gly-Thr-αMePhe-Thr-Ser-Asp-Lys(-Gly-Gly-Gly-Gly-Oda)-Aib-Ile-Aib-Leu-Asp-Lys-Gln-Arg-Gln-Iva-Glu-Phe-Val-Arg-His-Leu-Leu-Asn-Lys-Aib-Thr-Arg-Gln-Arg-Tyr-NH2
As to B1, the results for the “Agonist activity (EC50)” value with human GIPR, with human GLP-1R and with human NPY2R were 220 pM, 320 pM and 2100 pM, respectively.

B2: H-Tyr-Aib-Glu-Gly-Thr-αMePhe-Thr-Ser-Asp-Lys(-Gly-Gly-Gly-Gly-Oda)-Aib-Ile-Aib-Leu-Asp-Lys-Gln-Arg-Gln-Iva-Glu-Phe-Val-Arg-His-Leu-Leu-Asn-Lys-Aib-Thr-Arg-Gln-A … (peptide)
peptide: H-Y[Aib]EGT[αMeF]TSDK([Gly-Gly-Gly-Gly-Oda])[Aib]I[Aib]LDKQRQ[Iva]EFVRHLLNK[Aib]TRQR[Phe(2-F)]-NH2
modifications: reading uncertain; also: printed as H-Tyr-Aib-Glu-Gly-Thr-αMePhe-Thr-Ser-Asp-Lys(-Gly-Gly-Gly-Gly-Oda)-Aib-Ile-Aib-Leu-Asp-Lys-Gln-Arg-Gln-Iva-Glu-Phe-Val-Arg-His-Leu-Leu-Asn-Lys-Aib-Thr-Arg-Gln-Arg-Phe(2-F)-NH2
For the molecule B2, the “Agonist activity (EC50)” value in the test with human GIPR stood at 410 pM; in the test with human GLP-1R it was 610 pM; with human NPY2R, 1300 pM.
For H-Y[Aib]EGT[αMeF]TSDK([Gly-Gly-Gly-Gly-Pal])SI[Aib]LEKQRQ[Iva]EFVRHLLNK[Aib]TRQRY-NH2, the “Agonist activity (EC50)” value with human GIPR was determined as 41 pM; with human GLP-1R it was 53 pM; in the test with human NPY2R, 41 pM.

B3: Me-Tyr-Aib-Glu-Gly-Thr-αMePhe-Thr-Ser-Asp-Lys(-Gly-Gly-Gly-Gly-Oda)-Ala-Ile-Aib-Leu-Glu-Lys-Gln-Arg-Gln-Iva-Glu-Phe-Val-Arg-His-Leu-Leu-Asn-Lys-Aib-Thr-Arg-Gln- … (peptide)
peptide: [NMeY][Aib]EGT[αMeF]TSDK([Gly-Gly-Gly-Gly-Oda])AI[Aib]LEKQRQ[Iva]EFVRHLLNK[Aib]TRQRY-NH2
modifications: reading uncertain; also: printed as Me-Tyr-Aib-Glu-Gly-Thr-αMePhe-Thr-Ser-Asp-Lys(-Gly-Gly-Gly-Gly-Oda)-Ala-Ile-Aib-Leu-Glu-Lys-Gln-Arg-Gln-Iva-Glu-Phe-Val-Arg-His-Leu-Leu-Asn-Lys-Aib-Thr-Arg-Gln-Arg-Tyr-NH2
In the case of B3, the “Agonist activity (EC50)” value came to 400 pM with human GIPR, 2300 pM in the test with human GLP-1R and 1700 pM in the test with human NPY2R.
For the molecule Me-Y[Aib]EGT[αMeF]TSDK([Gly-Gly-Gly-Gly-Pal])[Aib]I[Aib]LDKQRQ[Iva]EFVRHLLNK[Aib]TRQRY-NH2, the results for the “Agonist activity (EC50)” value with human GIPR, in the test with human GLP-1R and in the test with human NPY2R were 68 pM, 83 pM and 100 pM, respectively.
For the molecule Me-Y[Aib]EGT[αMeF]TSDK([Gly-Gly-Gly-Gly-Pal])AI[Aib]LEKQRQ[Iva]EFVRHLLNK[Aib]TRQRY-NH2, the “Agonist activity (EC50)” value in the test with human GIPR amounted to 40 pM; in the test with human GLP-1R, 36 pM; in the test with human NPY2R, 26 pM.
In the case of Me-Y[Aib]EGT[αMeF]TSDK([Gly-Gly-Gly-Gly-Pal])[Aib]I[Aib]LDKQRQ[Iva]EFVRHLLNK[Aib]TRQR[Phe(2-F)]-NH2, the entries for the “Agonist activity (EC50)” value in the test with human GIPR, in the test with human GLP-1R and with human NPY2R were 93 pM, 130 pM and 120 pM, respectively.
With H-Y[Aib]EGT[αMeF]TSDK([Gly-Gly-Gly-Gly-Pal])[Aib]I[Aib]LDKQAQ[Iva]EFVRHLLNK[Aib]TRQR[Phe(2-F)]-NH2, the “Agonist activity (EC50)” value with human GIPR is 35 pM; with human GLP-1R it was 14 pM; in the test with human NPY2R, 31 pM.
H-Y[Aib]EGT[αMeF]TSDK([Gly-Gly-Gly-Gly-Pal])[Aib]I[Aib]LDKQRQ[Iva]EFVRHLLNK[Aib]TRQRY-NH2: the “Agonist activity (EC50)” value with human GIPR was found to be 68 pM; in the test with human GLP-1R, 82 pM; in the test with human NPY2R it was 100 pM.

B4: Me-Tyr-Aib-Glu-Gly-Thr-αMePhe-Thr-Ser-Asp-Lys(-Gly-Gly-Gly-Gly-Oda)-Aib-Ile-Aib-Leu-Asp-Lys-Gln-Arg-Gln-Iva-Glu-Phe-Val-Arg-His-Leu-Leu-Asn-Lys-Aib-Thr-Arg-Gln- … (peptide)
peptide: Me-Y[Aib]EGT[αMeF]TSDK([Gly-Gly-Gly-Gly-Oda])[Aib]I[Aib]LDKQRQ[Iva]EFVRHLLNK[Aib]TRQR[Phe(2-F)]-NH2
modifications: reading uncertain; also: printed as Me-Tyr-Aib-Glu-Gly-Thr-αMePhe-Thr-Ser-Asp-Lys(-Gly-Gly-Gly-Gly-Oda)-Aib-Ile-Aib-Leu-Asp-Lys-Gln-Arg-Gln-Iva-Glu-Phe-Val-Arg-His-Leu-Leu-Asn-Lys-Aib-Thr-Arg-Gln-Arg-Phe(2-F)-NH2
Turning to B4, the “Agonist activity (EC50)” value was 290 pM in the test with human GIPR, 1500 pM with human GLP-1R and 1000 pM in the test with human NPY2R.

B5: H-Tyr-Aib-Glu-Gly-Thr-αMePhe-Thr-Ser-Asp-Lys(-Gly-Gly-Gly-Gly-Oda)-Ala-Ile-Aib-Leu-Glu-Lys-Gln-Arg-Gln-Iva-Glu-Phe-Val-Arg-His-Leu-Leu-Asn-Lys-Aib-Thr-Arg-Gln-A … (peptide)
peptide: H-Y[Aib]EGT[αMeF]TSDK([Gly-Gly-Gly-Gly-Oda])AI[Aib]LEKQRQ[Iva]EFVRHLLNK[Aib]TRQRY-NH2
modifications: reading uncertain; also: printed as H-Tyr-Aib-Glu-Gly-Thr-αMePhe-Thr-Ser-Asp-Lys(-Gly-Gly-Gly-Gly-Oda)-Ala-Ile-Aib-Leu-Glu-Lys-Gln-Arg-Gln-Iva-Glu-Phe-Val-Arg-His-Leu-Leu-Asn-Lys-Aib-Thr-Arg-Gln-Arg-Tyr-NH2
For B5, the entries for the “Agonist activity (EC50)” value in the test with human GIPR, with human GLP-1R and in the test with human NPY2R were 360 pM, 530 pM and 1100 pM, respectively.

B6: Me-Tyr-Aib-Glu-Gly-Thr-αMePhe-Thr-Ser-Asp-Lys(-Gly-Gly-Gly-Gly-Oda)-Ser-Ile-Aib-Leu-Glu-Lys-Gln-Arg-Gln-Iva-Glu-Phe-Val-Arg-His-Leu-Leu-Asn-Lys-Aib-Thr-Arg-Gln- … (peptide)
peptide: Me-Y[Aib]EGT[αMeF]TSDK([Gly-Gly-Gly-Gly-Oda])SI[Aib]LEKQRQ[Iva]EFVRHLLNK[Aib]TRQRY-NH2
modifications: reading uncertain; also: printed as Me-Tyr-Aib-Glu-Gly-Thr-αMePhe-Thr-Ser-Asp-Lys(-Gly-Gly-Gly-Gly-Oda)-Ser-Ile-Aib-Leu-Glu-Lys-Gln-Arg-Gln-Iva-Glu-Phe-Val-Arg-His-Leu-Leu-Asn-Lys-Aib-Thr-Arg-Gln-Arg-Tyr-NH2
For the molecule B6, the “Agonist activity (EC50)” value with human GIPR was determined as 250 pM; with human GLP-1R, 1300 pM; with human NPY2R it was 2600 pM.

B7: Me-Tyr-Aib-Glu-Gly-Thr-αMePhe-Thr-Ser-Asp-Lys(-Gly-Gly-Gly-Gly-Oda)-Aib-Ile-Aib-Leu-Glu-Lys-Gln-Arg-Gln-Iva-Glu-Phe-Val-Arg-His-Leu-Leu-Asn-Lys-Aib-Thr-Arg-Gln- … (peptide)
peptide: Me-Y[Aib]EGT[αMeF]TSDK([Gly-Gly-Gly-Gly-Oda])[Aib]I[Aib]LEKQRQ[Iva]EFVRHLLNK[Aib]TRQRY-NH2
modifications: reading uncertain; also: printed as Me-Tyr-Aib-Glu-Gly-Thr-αMePhe-Thr-Ser-Asp-Lys(-Gly-Gly-Gly-Gly-Oda)-Aib-Ile-Aib-Leu-Glu-Lys-Gln-Arg-Gln-Iva-Glu-Phe-Val-Arg-His-Leu-Leu-Asn-Lys-Aib-Thr-Arg-Gln-Arg-Tyr-NH2
With B7, the figures for the “Agonist activity (EC50)” value in the test with human GIPR, with human GLP-1R and in the test with human NPY2R were 530 pM, 1100 pM and 1500 pM, respectively.
The matching figures for H-Y[Aib]EGT[αMeF]TSDK([Gly-Gly-Gly-Gly-Pal])AI[Aib]LEKQRQ[Iva]EFVRHLLNK[Aib]TRQRY-NH2: 42 pM, 45 pM and 23 pM.

B8: H-Tyr-Aib-Glu-Gly-Thr-αMePhe-Thr-Ser-Asp-Lys(-Gly-Gly-Gly-Gly-Oda)-Ser-Ile-Aib-Leu-Glu-Lys-Gln-Arg-Gln-Iva-Glu-Phe-Val-Arg-His-Leu-Leu-Asn-Lys-Aib-Thr-Arg-Gln-A … (peptide)
peptide: H-Y[Aib]EGT[αMeF]TSDK([Gly-Gly-Gly-Gly-Oda])SI[Aib]LEKQRQ[Iva]EFVRHLLNK[Aib]TRQRY-NH2
modifications: reading uncertain; also: printed as H-Tyr-Aib-Glu-Gly-Thr-αMePhe-Thr-Ser-Asp-Lys(-Gly-Gly-Gly-Gly-Oda)-Ser-Ile-Aib-Leu-Glu-Lys-Gln-Arg-Gln-Iva-Glu-Phe-Val-Arg-His-Leu-Leu-Asn-Lys-Aib-Thr-Arg-Gln-Arg-Tyr-NH2
Consider B8, for which the “Agonist activity (EC50)” value came out at 170 pM with human GIPR, 240 pM with human GLP-1R and 1600 pM with human NPY2R.

(Values after patent US20190202883A1 (Takeda / Millennium, published 2019).)
